One may read the Kd as the constant that tells how readily two partners part at equilibrium.

Test [1] deals with T1, Human SIRPαV1 (NP_542970.1), Extracellular Domain + His-Tag (human, UniProt P78324 31-373).
T1 construct: also called huSIRPαV1; hSIRPαV1; not shown: His-Tag
As to the kind of experiment: SPR, antibody captured on Protein A/G, ECD-His analyte, 1:1 fit. Here is the method: (§1) The binding kinetics of anti-SIRPα antibodies to various SIRPα analytes are determined by surface plasmon resonance (SPR) using a Biacore 8K+(Cytiva). 1×HBS-EP+(Cytiva) is used as running buffer and for all the dilutions unless stated otherwise. The Series S CM5 sensorchip is activated with a 1:1 mixture of 0.1 M NHS (N-hydroxysuccinimide) and 0.4 M EDC (1-Ethyl-3-(3-dimethylaminopropyl) carbodiimide hydrochloride) for 420 seconds at a flow rate of 10 μl/min and immobilized with Protein A/G (Thermo Scientific, 10 μg/ml in 10 mM acetate pH 4.5) for 420 seconds at a flowrate of 10 μl/min resulting in approximately 3000 RU of Protein A/G on the surface. The sensorchip is then deactivated with 1 M ethanolamine HCl pH 8.5 for 420 seconds at a flowrate of 10 μl/min.
(§2) Antibodies (approximately 1 ug/ml) are captured on the Protein A/G surface for 60 seconds at a flowrate of 10 μl/min resulting in capture levels of approximately 240 RU. Dilutions of each SIRP protein (Extracellular Domain+His-Tag, with the concentrations as indicated) are injected as analytes over the captured antibody for 300 seconds of association at a flowrate of 30 μl/min, followed by a dissociation for 600 seconds.
(§3) The above procedures are used to measure binding properties of antibodies of the present disclosure. For each analyte used, the highest concentration was as indicated in Example 3 (see Table 36).
On the technique in general: SPR reads the build-up and loss of mass on a sensor chip optically.

In test [2] the target is T2, Human SIRPαV2 (CAA71403.1), Extracellular Domain + His-Tag (human, UniProt P78324 31-373).
T2 construct: also called huSIRPαV2; hSIRPαV2; not shown: His-Tag
T2 sequence (P78324 other isoform, or with tags, fused parts or gaps): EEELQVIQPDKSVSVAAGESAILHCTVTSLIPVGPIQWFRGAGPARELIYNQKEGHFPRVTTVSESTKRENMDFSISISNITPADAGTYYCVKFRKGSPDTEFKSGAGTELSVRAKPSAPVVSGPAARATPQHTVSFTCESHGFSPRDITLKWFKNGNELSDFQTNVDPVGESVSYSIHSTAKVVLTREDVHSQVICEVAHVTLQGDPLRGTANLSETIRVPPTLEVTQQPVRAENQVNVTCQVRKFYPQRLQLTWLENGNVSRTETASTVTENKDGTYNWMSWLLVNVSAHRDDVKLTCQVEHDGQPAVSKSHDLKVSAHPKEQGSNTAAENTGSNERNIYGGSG
Described as above. As for the experimental part:
as §1, §2, §3

Test [3] deals with T3, cynomolgus SIRPα (EGM_02252) extracellular domain + His-tag (cynomolgus monkey).
T3 construct: SPR analyte; also called CySIRPα EGM_02252; cynoSIRPα; not shown: His-tag
T3 chain: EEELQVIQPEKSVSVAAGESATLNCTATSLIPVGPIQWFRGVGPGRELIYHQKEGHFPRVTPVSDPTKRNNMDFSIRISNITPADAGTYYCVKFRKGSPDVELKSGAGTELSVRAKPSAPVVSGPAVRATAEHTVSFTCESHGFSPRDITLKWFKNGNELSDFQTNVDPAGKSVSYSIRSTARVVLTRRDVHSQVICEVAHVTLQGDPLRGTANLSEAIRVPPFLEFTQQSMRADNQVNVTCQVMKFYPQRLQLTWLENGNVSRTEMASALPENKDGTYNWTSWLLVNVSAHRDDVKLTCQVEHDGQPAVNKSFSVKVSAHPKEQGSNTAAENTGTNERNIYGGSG
Put plainly: SPR. Here is the method: (§4) The binding affinity of anti-SIRPα antibodies to the various SIRPα analytes is determined by surface plasmon resonance (SPR) using a ProteOn XPR36 (Bio-Rad). The running buffer for this experiment and all dilutions (except where stated) are done in 1×HBS-EP+. […] The sensorchip is deactivated with 1M ethanolamine HCl for 420 sec at a flowrate of 10 μl/min.
(§5) The analyte is injected over the captured antibody for 300 sec at a flowrate of 30 μl/min. The dissociation is done for 600 sec. Two-fold serial dilutions of each SIRP protein (Extracellular Domain+His-Tag) are injected as analyte with the highest concentrations indicated in table 36 below.

The target of test [4] is T4, cynomolgus SIRPβ1 (XP_005568598) extracellular domain + His-tag (cynomolgus monkey).
T4 construct: SPR analyte; also called Cyno SIRPβ1 XP_005568598; cynoSIRPβ1; not shown: His-tag
T4 chain: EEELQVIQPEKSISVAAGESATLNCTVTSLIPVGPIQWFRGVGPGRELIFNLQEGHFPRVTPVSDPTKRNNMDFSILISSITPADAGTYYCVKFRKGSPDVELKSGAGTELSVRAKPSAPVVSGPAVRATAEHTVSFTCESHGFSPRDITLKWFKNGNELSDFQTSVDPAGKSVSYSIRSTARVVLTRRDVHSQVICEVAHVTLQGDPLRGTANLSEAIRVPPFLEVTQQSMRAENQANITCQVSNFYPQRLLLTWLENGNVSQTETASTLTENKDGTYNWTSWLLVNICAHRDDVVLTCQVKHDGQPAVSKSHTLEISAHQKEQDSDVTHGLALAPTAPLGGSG
Put plainly: SPR. Here is the method: as §4, §5

Test [5] deals with T5, cynomolgus SIRPγ (XP_005568591) extracellular domain + His-tag (cynomolgus monkey, UniProt Q9P1W8 29-359 (human entry)).
T5 construct: SPR analyte; also called Cyno SIRPγ XP_005568591; cynoSIRPγ; not shown: His-tag
T5 chain: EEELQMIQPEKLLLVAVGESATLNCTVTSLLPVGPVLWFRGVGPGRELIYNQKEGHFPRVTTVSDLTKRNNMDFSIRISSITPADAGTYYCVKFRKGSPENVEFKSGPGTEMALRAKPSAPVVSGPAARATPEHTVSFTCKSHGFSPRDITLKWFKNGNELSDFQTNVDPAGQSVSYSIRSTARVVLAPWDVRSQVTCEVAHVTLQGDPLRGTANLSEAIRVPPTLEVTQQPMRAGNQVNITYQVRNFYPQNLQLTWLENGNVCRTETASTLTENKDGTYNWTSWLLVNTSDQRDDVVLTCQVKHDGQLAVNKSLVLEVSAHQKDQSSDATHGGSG
As to the kind of experiment: SPR. As for the experimental part:
as §4, §5

For test [6], the target named is T6, cynomolgus SIRPβ1v3 (XP_005568593) extracellular domain + His-tag (cynomolgus monkey).
T6 construct: SPR analyte; also called Cyno SIRPβ1v3 XP_005568593; cynoSIRPβ1v3; not shown: His-tag
T6 chain: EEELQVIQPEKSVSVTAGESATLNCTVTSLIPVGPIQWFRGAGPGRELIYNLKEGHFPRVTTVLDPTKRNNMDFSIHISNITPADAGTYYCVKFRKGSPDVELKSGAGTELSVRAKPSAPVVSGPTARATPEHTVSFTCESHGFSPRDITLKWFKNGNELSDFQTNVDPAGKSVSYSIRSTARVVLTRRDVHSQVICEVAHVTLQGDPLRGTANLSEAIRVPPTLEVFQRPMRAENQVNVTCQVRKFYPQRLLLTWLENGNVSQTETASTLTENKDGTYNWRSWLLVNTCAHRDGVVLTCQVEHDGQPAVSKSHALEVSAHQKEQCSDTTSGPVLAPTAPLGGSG
As to the kind of experiment: SPR, antibody captured, ECD-His analyte. As for the experimental part:
as §4, §5

Test [7] addresses T7, human SIRPαV1 extracellular domain + His-tag (NP_542970.1) (human, UniProt P78324 31-373).
T7 construct: also called hSIRPαV1; HuSIRPαV1
Put plainly: SPR, Ab captured, ECD-His analyte. Here is the method:
as §4, §5

Test [8] concerns the target T8, human SIRPαV2 extracellular domain + His-tag (CAA71403.1) (human, UniProt P78324 31-373).
T8 construct: also called hSIRPαV2; HuSIRPαV2
As to the kind of experiment: SPR, Ab captured, ECD-His analyte. As for the experimental part:
as §4, §5

In test [9] the target is T9, human SIRPγ extracellular domain + His-tag (NP_061026.2) (human, UniProt Q9P1W8 29-360).
T9 construct: also called hSIRPγ; HuSIRPγ
T9 sequence (Q9P1W8 29-360): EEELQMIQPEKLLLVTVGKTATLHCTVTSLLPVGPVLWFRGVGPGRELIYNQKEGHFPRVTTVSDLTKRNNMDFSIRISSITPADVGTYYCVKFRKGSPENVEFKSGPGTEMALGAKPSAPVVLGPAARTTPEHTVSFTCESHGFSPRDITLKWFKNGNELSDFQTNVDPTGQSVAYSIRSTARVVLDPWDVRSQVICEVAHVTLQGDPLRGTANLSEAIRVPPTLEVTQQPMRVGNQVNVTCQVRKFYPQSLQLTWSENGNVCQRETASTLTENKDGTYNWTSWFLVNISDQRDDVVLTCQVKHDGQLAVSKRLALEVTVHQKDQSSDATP
Put plainly: SPR, Ab captured, ECD-His analyte. As for the experimental part:
as §4, §5

Where a chain is given by its changes, count along the chain named.

T7 sequence (P78324 other isoform, or with tags, fused parts or gaps): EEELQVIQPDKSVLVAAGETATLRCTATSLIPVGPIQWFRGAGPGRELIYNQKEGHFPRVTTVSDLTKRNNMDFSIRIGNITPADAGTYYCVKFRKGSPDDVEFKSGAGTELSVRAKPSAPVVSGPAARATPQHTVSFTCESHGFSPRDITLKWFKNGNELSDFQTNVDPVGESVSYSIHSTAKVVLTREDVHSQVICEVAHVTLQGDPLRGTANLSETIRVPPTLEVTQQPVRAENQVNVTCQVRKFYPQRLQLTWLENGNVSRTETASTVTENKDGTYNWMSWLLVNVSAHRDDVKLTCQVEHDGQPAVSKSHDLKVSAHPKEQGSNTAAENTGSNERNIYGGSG

B1: Antibody E (antibody, human IgG1, kappa, L234A L235A)
heavy: not shown
light: DIVMTQSPLSLPVTPGEPASISCKSSQSLLYSNGYNYLDWYLQRPGQSPQLLIYLGSNRASGVPDRFSGSGSGTDFTLKISRVEAEDVGVFYCMQALQTPLTFGGGTKVEIKRTVAAPSVFIFPPSDEQLKSGTASVVCLLNNFYPREAKVQWKVDNALQSGNSQESVTEQDSKDSTYSLSSTLTLSKADYEKHKVYACEVTHQGLSSPVTKSFNRGEC
With B1, the Kd was determined as 0.43 nM in test [1] and 0.33 nM in test [2].

B2: Antibody E1 (antibody, human IgG1, kappa, L234A L235A, V domains shown)
VH: QVQLQESGPGLVRPSETLSLTCTVSGGSIRNYYWSWIRQPPGKGLEWIGFIYYNGRTFYNPSLKSRVTISLDMSINQFSLKMTSVTAADTAVYYCARVRAYSGIGLDGTDVWGQGTTVTVSS
VL: DIVMTQSPLSLPVTPGEPASISCKSSQSLLYSNGYAYLDWYLQRPGQSPQLLIYQGSNRASGVPDRFSGSGSGTDFTLKISRVEAEDVGVFYCMQALQTPLTFGGGTKVEIKR
Take B2: the binding result in test [3], in test [4] and in test [5] was “no binding (tested: 1000 nM)” throughout. Also, in [6], the Kd was 10.8 nM.

B3: Antibody E3 (antibody, human IgG1, kappa, L234A L235A, V domains shown)
VH: B2 VH with I75K
VL: B2 VL
Regarding B3, the binding result in test [3], in [4] and in test [5] was “no binding (tested: 1000 nM)” throughout. Besides, the Kd in [6] amounted to 10.7 nM.

B4: Antibody E4 (antibody, human IgG1, kappa, L234A L235A, V domains shown)
VH: B2 VH with I75K
VL: B2 VL with Q55L, F91Y
B4: the dissociation constant (Kd) in test [7] turned out to be 0.988 nM; in test [8], 0.824 nM. Also, in [9], the binding result is reported as “no binding (tested: 1000 nM)”.

B5: Antibody E11 (antibody, human IgG1, kappa, L234A L235A, V domains shown)
VH: B2 VH with I48M, Y53D, I75M
VL: B2 VL with Q55L, F91Y
As for B5, the equilibrium dissociation constant (Kd) was found to be 1.41 nM in test [7] and 0.568 nM in test [8]. The binding result in test [9] was “no binding (tested: 1000 nM)”.

B6: Antibody E10 (antibody, human IgG1, kappa, L234A L235A, V domains shown)
VH: B2 VH with M73T, I75K
VL: B2 VL with Q55L, F91Y
As for B6, the figures for the Kd in test [7] and in [8] were 1.23 nM and 1.2 nM, respectively. Moreover, in test [9], the binding result was “no binding (tested: 1000 nM)”.

B7: Antibody E5 (antibody, human IgG1, kappa, L234A L235A, V domains shown)
VH: B2 VH with M73K, I75K
VL: B2 VL
As to B7, the binding result in [3], in test [4] and in test [5] was “no binding (tested: 1000 nM)” each time. Besides, in test [6], the Kd is 22.6 nM.

B8: Antibody E3 (antibody, human IgG1, kappa, L234A L235A, V domains shown)
VH: B2 VH with I75K
VL: B2 VL
Consider B8, for which the Kd in test [7] came to 0.964 nM; in test [8], 0.775 nM. Further, the binding result in test [9] was “no binding (tested: 1000 nM)”.

B9: Antibody E1 (antibody, human IgG1, kappa, L234A L235A, V domains shown)
VH: B2 VH
VL: B2 VL
B9: the Kd was 0.723 nM in [7] and 0.63 nM in [8]. Besides, in test [9], the binding result was “no binding (tested: 1000 nM)”.

B10: Antibody E16 (antibody, human IgG1, kappa, L234A L235A, V domains shown)
VH: B2 VH with M73T, I75K
VL: B2 VL with G34A, A36N, Q55L, F91Y
B10: the Kd in test [7] is 2.15 nM; in test [8] it was 1.93 nM. Further, the binding result in [9] is reported as “no binding (tested: 1000 nM)”.

B11: Antibody E2 (antibody, human IgG1, kappa, L234A L235A, V domains shown)
VH: B2 VH
VL: B2 VL with Q55L, F91Y
On to B11, for which the binding result in [3], in test [4] and in test [5] was “no binding (tested: 1000 nM)” throughout. In test [6], the dissociation constant Kd was found to be 12.4 nM.

B12: Antibody E6 (antibody, human IgG1, kappa, L234A L235A, V domains shown)
VH: B2 VH with M73K, I75K
VL: B2 VL with Q55L, F91Y
For B12, the binding result in test [3], in test [4] and in test [5] was “no binding (tested: 1000 nM)” throughout. Besides, the Kd in test [6] turned out to be 23.9 nM.
